Measured values: article PMC10844826 (iScience, 2024)

How the values were obtained:
[1] = target: GST-tagged Arabidopsis thaliana Rpn10 vWA domain (Arabidopsis thaliana) (UniProt P55034); assay: SPR
[2] = target: T1, GST-tagged Arabidopsis thaliana Rpn10 vWA domain (Arabidopsis thaliana, UniProt P55034 2-193); assay: SPR
T1 sequence: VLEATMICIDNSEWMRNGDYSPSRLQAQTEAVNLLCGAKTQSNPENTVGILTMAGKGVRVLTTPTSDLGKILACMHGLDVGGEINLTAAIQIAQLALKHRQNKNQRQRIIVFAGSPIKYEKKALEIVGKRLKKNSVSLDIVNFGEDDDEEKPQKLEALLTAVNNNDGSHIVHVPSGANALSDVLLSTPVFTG

[3] = target: T2, AtRpn10 vWA domain, GST removed, as in the purified complexes (Arabidopsis thaliana, UniProt P55034 2-193); assay: SEC-MALS
T2 sequence: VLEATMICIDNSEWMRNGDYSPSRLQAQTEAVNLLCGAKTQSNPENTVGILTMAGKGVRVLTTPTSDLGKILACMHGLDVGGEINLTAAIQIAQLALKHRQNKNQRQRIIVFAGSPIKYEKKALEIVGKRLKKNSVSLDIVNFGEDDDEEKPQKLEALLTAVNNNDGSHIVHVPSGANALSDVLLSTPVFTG

Molecule “onion yellows phytoplasma SAP05 (natural protein)” has a Kd [1] of 398 nM.

B1: Aster Yellows witches'-broom phytoplasma SAP05 (33-135) (natural protein, UniProt Q2NK94 33-135, looked up)
chain: APNEEFVGDMRIVNVNLSNIDILKKHETFKKYFDFTLTGPRYNGNIAEFAMIWKIKNPPLNLLGVFFDDGTRDDEDDKYILEELKQIGNGAKNMYIFWQYEQK
B1 showed a Kd [2] of 400 nM.

B2: AYWB_SAP05 (33-135), tag removed, as in the purified complex (natural protein, UniProt Q2NK94 33-135, looked up)
chain: APNEEFVGDMRIVNVNLSNIDILKKHETFKKYFDFTLTGPRYNGNIAEFAMIWKIKNPPLNLLGVFFDDGTRDDEDDKYILEELKQIGNGAKNMYIFWQYEQK
With B2 the “stoichiometry N” value [3] was 1.
